These are literature values, as cited in article PMC2924770.

As usually defined, the Kd is the constant that tells how readily two partners part at equilibrium.

In series [1] the target is hemoglobin (Homo sapiens) (UniProt P69905).
For series [2] the target is unchanged. This is another data set of the same source.

Read-outs that look alike come from different tables or passages of the source.

Turning to RgpA (from UniProt P28784), the Kd in series [1] is 3.72 nM.
Regarding Kgp (from UniProt B2RLK2), the Kd in series [2] was 3.92 nM.
